The values that follow come from PMC7616425, “Transient Structural Properties of the Rho GDP-Dissociation Inhibitor” (Angewandte Chemie (International ed. in English), 2024).

To fix the notation:
T1: Alexa647-labeled RhoGDI1 (wt) (bovine, UniProt P19803 1-204, Alexa647 acceptor (site not stated))
T1 construct: also called wildtype GDI; wt RhoGDI
T1 sequence (looked up): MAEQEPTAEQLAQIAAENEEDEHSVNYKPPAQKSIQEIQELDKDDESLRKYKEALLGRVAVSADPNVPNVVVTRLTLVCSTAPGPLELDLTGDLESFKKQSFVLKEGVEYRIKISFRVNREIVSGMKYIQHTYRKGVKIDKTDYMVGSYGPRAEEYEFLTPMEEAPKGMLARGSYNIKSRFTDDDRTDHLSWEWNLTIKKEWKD

B1: full-length RhoGDI1 (residues 1 to 204), bovine (natural protein, UniProt P19803 1-204, looked up)
chain: T1 sequence (looked up)
modifications: triply labeled (2H, 13C, 15N) in the NMR samples
B2: Cy3-labeled, prenylated Cdc42 (natural protein)
chain: not shown
modifications: prenylated (residue not stated); Cy3 donor (site not stated)
notes: Cdc42, Rho family small GTPase
B3: Alexa647-labeled RhoGDI1 L56G (natural protein, bovine, UniProt P19803 1-204, looked up)
chain: T1 sequence (looked up) with L56G
modifications: Alexa647 acceptor (site not stated)

The target in test [1] is Cdc42, homogeneously geranylgeranylated in vitro (UniProt P60953 1-191, geranylgeranylated in vitro (residue not stated)). Description: cell-based or functional assay.
Sequence of Cdc42, homogeneously geranylgeranylated in vitro (P60953 whole entry): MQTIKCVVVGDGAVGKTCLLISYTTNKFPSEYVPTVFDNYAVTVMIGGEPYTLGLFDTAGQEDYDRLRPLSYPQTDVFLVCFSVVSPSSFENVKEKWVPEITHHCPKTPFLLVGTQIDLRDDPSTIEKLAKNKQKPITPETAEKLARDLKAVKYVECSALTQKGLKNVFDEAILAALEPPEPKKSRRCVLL
For test [2], the target named is B3. Description: FRET or BRET; dissociation assay: 80 nM dual-labeled complex (Alexa647 on RhoGDI1, Cy3 on Cdc42) mixed with excess (5 μM) unlabeled GDI; mono-exponential fits; KD calculated from the measured dissociation rate constant and the association rate constant measured for wt (assumed for the mutants). As to conditions: both partners purified.
In test [3] the target is T1, Alexa647-labeled RhoGDI1 (wt). Described as above. The note with it: both partners purified.
The target is the same in test [4]. Description: not stated; association rate constant determined independently for wildtype GDI (Figure S17). The note with it: both partners purified.

Where a chain is given by its changes, count along the chain named.

Turning to B1, the “inhibition of EDTA-induced Mant-GDP dissociation from prenylated Cdc42 with saturating (5 μM) RhoGDI, against free Cdc42” value in test [1] was determined as 83 fold.

Take B2: the Kd in test [2] was 4 nM; in test [3], 0.09 nM. For the same molecule, the koff in test [2] is 0.2 s⁻¹; in test [3], 0.0004 s⁻¹. Besides, the kon in test [4] came to 5e+06 M⁻¹ s⁻¹.

With B3, the “acceleration of Mant-GDP dissociation from prenylated Cdc42 with 5 μM RhoGDI L56G, against wt RhoGDI” value in test [1] was determined as 5 fold.
